Source: patent US5854388A, “Angiotensin IV peptides and receptor” (Washington State University Research Foundation, priority 1994, dated 1998)
pKi: −log10 of the molar value.

What was measured:
[1] = in vivo; cited from earlier work
AT4 receptor = target: T1, AT4 receptor (Cavia porcellus, UniProt H0VNM7); assay: 125I-AIV binding and competition, guinea pig hippocampus membranes; conditions: competition of 0.6 nM 125I-AIV
T1 sequence (H0VNM7 1-1025): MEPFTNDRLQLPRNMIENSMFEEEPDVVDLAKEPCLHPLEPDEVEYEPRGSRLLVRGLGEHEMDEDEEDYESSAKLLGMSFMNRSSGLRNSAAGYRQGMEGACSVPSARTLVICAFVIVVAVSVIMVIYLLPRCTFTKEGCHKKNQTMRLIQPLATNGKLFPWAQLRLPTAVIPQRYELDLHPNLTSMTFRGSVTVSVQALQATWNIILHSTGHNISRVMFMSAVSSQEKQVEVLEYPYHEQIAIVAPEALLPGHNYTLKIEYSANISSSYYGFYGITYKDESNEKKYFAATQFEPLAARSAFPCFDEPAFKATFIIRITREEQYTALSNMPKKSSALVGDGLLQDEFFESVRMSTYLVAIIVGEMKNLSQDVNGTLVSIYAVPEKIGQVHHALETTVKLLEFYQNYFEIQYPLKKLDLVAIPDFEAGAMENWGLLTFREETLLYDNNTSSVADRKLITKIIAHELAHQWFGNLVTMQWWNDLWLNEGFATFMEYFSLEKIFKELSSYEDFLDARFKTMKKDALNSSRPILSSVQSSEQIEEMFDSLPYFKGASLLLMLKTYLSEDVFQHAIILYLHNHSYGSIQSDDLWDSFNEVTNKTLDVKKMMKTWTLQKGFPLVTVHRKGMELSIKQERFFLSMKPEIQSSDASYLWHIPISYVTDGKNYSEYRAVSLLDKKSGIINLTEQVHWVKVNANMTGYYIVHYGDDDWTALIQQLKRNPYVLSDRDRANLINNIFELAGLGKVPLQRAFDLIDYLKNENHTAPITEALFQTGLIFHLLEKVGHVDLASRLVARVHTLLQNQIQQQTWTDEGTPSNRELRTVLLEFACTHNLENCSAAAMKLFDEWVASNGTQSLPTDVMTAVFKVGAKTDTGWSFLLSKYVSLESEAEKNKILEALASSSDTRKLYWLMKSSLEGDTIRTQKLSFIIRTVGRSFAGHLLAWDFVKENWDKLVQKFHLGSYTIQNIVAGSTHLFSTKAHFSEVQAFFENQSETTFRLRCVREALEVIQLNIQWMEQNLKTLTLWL

[2] = Stability of angiotensin peptides in binding buffer (reverse phase HPLC); format: physicochemical; conditions: 4 h at 37° C.
Method: Binding studies were carried out in a buffer (below) containing an extensive cocktail of inhibitors that was designed to minimize metabolism of both the receptor and the test ligand, i.e., the buffer contained 5 mM EDTA, 0.2% BSA, […] Bestatin, 50 μM Plummer's inhibitor, and 100 μM PMSF.

In the case of “Asp1 Arg2 Val3 Tyr4 Ile5 His6 Pro7 Phe8 (DRVYIHPF) [AII]”, the half-lives [1] is listed as 4.4 min, the pKi (AT4 receptor) is listed as less than 6.00 and the “hydrolysis in binding buffer” value [2] is listed as “less than 10%”.
